In paper PMC2733743:

What was measured:
[1] = molecular target: endogenous cortactin of MTLn3 cells (rat (endogenous in MTLn3)) (UniProt Q66HL2); assay: FRET or BRET
[2] = molecular target: WT cortactin stably expressed in MTLn3 cells (endogenous cortactin knocked down) (rat); assay: FRET or BRET
Chain of WT cortactin stably expressed in MTLn3 cells (endogenous cortactin knocked down) (rat) (Q66HL2 whole entry): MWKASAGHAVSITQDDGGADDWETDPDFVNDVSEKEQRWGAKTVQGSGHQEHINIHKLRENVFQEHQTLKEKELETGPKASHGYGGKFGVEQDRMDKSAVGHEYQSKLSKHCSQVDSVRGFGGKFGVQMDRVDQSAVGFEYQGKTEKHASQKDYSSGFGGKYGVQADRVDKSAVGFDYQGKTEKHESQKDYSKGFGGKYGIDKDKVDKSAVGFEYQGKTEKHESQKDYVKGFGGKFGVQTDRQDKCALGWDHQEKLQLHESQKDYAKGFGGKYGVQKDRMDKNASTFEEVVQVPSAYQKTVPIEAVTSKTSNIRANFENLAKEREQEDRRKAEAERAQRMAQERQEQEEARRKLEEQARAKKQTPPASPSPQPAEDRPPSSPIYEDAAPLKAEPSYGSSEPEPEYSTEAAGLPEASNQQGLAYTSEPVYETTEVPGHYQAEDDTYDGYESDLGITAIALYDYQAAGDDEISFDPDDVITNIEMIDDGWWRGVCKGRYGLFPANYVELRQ

FRET efficiency [1]: 11.8% | FRET efficiency [2]: 4.2%
Substance: endogenous cofilin of MTLn3 cells (from UniProt P45592 1-166) (natural protein)
